The source of these data is doi:10.1101/2023.04.24.538129 (bioRxiv, 2023).

This data set concerns the molecule itself. Kind of data set: Thioflavin-T fluorescence.

B1: human dysferlin C2A domain with the pathogenic mutation W52R (C2A^W52R) (domain or fragment)
chain: MLRVFILYAENVHTPDTDISDAYCSAVFAGVKKRTKVIKNSVNPVWNEGFERDLKGIPLDQGSELHVVVKDHETMGRNRFLGEAKVPLREVLATPSLSASFNAPLLDTKKQPTGASLVLQVSYT
B1: the binding result is “binds”.

B2: human dysferlin C2A domain with the pathogenic mutation V67D (C2A^V67D) (domain or fragment)
chain: MLRVFILYAENVHTPDTDISDAYCSAVFAGVKKRTKVIKNSVNPVWNEGFEWDLKGIPLDQGSELHDVVKDHETMGRNRFLGEAKVPLREVLATPSLSASFNAPLLDTKKQPTGASLVLQVSYT
B2: the binding result is recorded as “binds”.
